Reference: patent US20220372155A1 (LYVGEN BIOPHARMA, published 2022)

T1: human B7H4 expressed on CHO cells (human, UniProt Q7Z7D3 25-282)
T1 construct: whole, on cells; also called VCTN1
T1 sequence (looked up): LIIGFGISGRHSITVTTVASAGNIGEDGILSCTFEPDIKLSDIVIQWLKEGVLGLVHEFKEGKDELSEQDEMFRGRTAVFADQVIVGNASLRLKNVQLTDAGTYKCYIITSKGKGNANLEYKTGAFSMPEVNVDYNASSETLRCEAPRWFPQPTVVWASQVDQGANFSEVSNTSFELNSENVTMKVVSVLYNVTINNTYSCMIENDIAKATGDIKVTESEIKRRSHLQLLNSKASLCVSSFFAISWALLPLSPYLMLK

B1: Ly345 (bispecific antibody, human IgG1, kappa)
heavy: QVQLVQSGAEVKKPGASVKVSCKASGYTFTDFWMSWVRQAPGQGLEWMGQIYPNTGTTHSNEKFKGRVTMTRDTSTSTVYMELSSLRSEDTAVYYCARSYHISTTPNWFAYWGQGTLVTVSSASTKGPSVFPLAPSSKSTSGGTAALGCLVKDYFPEPVTVSWNSGALTSGVHTFPAVLQSSGLYSLSSVVTVPSSSLGTQTYICNVNHKPSNTKVDKKVEPKSCDKTHTCPPCPAPELLGPSVFLFPPKPKDTLMISRTPEVTCVVVDVSHEDPEVKFNWYVDGVEVHNAKTKPREEQYNSTYRVVSVLTVLHQDWLNGKEYKCKVSNKALPAPIEKTISKAKGQPREPQVYTLPPSREEMTKNQVSLTCLVKGFYPSDIAVEWESNGQPENNYKTTPPVLDSDGSFFLYSKLTVDKSRWQQGNVFSCSVMHEALHNHYTQKSLSLSPG
light: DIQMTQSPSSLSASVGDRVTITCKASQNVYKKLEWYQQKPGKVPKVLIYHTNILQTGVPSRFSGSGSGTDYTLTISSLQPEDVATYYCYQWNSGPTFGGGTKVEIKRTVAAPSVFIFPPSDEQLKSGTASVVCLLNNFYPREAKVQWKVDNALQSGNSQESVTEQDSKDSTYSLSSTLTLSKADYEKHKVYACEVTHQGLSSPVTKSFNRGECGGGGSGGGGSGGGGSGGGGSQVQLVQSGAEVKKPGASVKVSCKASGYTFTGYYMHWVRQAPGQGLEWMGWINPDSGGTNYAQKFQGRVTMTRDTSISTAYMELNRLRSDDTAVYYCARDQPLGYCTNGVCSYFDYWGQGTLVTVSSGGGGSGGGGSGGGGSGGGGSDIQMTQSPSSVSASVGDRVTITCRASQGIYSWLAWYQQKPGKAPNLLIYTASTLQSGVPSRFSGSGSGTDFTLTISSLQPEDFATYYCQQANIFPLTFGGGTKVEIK
notes: Ly076 HC (IgG1 mutated Fc) + Ly076 LC-Ly253 scFv VH-VL
B2: Ly487 (bispecific antibody, human IgG1, kappa)
heavy: EVQLVESGGGLVKPGGSLKLSCAASGFTFSDSGMHWVRQAPEKGLEWITYINSGSSTIYYADSVKGRFTISRDNAKNTLFLQMTSLRSEDTAMYYCARGRGYAMDYWGQGTSVTVSSASTKGPSVFPLAPSSKSTSGGTAALGCLVKDYFPEPVTVSWNSGALTSGVHTFPAVLQSSGLYSLSSVVTVPSSSLGTQTYICNVNHKPSNTKVDKKVEPKSCDKTHTCPPCPAPELLGPSVFLFPPKPKDTLMISRTPEVTCVVVDVSHEDPEVKFNWYVDGVEVHNAKTKPREEQYNSTYRVVSVLTVLHQDWLNGKEYKCKVSNKALPAPIEKTISKAKGQPREPQVYTLPPSREEMTKNQVSLTCLVKGFYPSDIAVEWESNGQPENNYKTTPPVLDSDGSFFLYSKLTVDKSRWQQGNVFSCSVMHEALHNHYTQKSLSLSPGGGGGSGGGGSGGGGSGGGGSQVQLVESGGGLVQPGGSLKLSCATSGFNFNDYFMNWVRQASGKGLEWVGQIRNKNYNYATYYTESLEGRVTISRDDSKNTAYLQMNSLKTEDTAVYYCTSYYYDGFADYFDYWGQGTTVTVSSGGGGSGGGGSGGGGSGGGGSDIQMTQSPSSLSASVGDRVTITCKASQNIYIYLNWYQQKPGKAPKLLIYNTNNLQTGVPSRFSGSGSGTDFTLTISSLQPEDFATYYCLQHSSRRTFGGGTKVEIK
light: EIVLTQSPTTMAASPGEKITIFCSASSSISSDFLHWYQQKPGFSPKLLIYRISNLASGVPARFSGSGSGTSYSLTIGTMEAEDVATYYCQQGSNVPRTFGGGTKLEIKRTVAAPSVFIFPPSDEQLKSGTASVVCLLNNFYPREAKVQWKVDNALQSGNSQESVTEQDSKDSTYSLSSTLTLSKADYEKHKVYACEVTHQGLSSPVTKSFNRGEC
notes: Ly366 HC (IgG1 mutated Fc)-TM740 scFv VH-VL + Ly366 LC
B3: Ly475 (bispecific antibody, human IgG1, kappa)
heavy: EVQLVESGGDLVKPGGSLKLSCAASGFTFSSYGMSWVRQTPDKRLEWVAAISTGGSYTYYPDSVKGRFTISRDTATNTLYLQMSTLKSEDTAMYYCTRRGATGSWFAYWGQGTLVTVSAASTKGPSVFPLAPSSKSTSGGTAALGCLVKDYFPEPVTVSWNSGALTSGVHTFPAVLQSSGLYSLSSVVTVPSSSLGTQTYICNVNHKPSNTKVDKKVEPKSCDKTHTCPPCPAPELLGPSVFLFPPKPKDTLMISRTPEVTCVVVDVSHEDPEVKFNWYVDGVEVHNAKTKPREEQYNSTYRVVSVLTVLHQDWLNGKEYKCKVSNKALPAPIEKTISKAKGQPREPQVYTLPPSREEMTKNQVSLTCLVKGFYPSDIAVEWESNGQPENNYKTTPPVLDSDGSFFLYSKLTVDKSRWQQGNVFSCSVMHEALHNHYTQKSLSLSPGGGGGSGGGGSGGGGSGGGGSQVQLVESGGGLVQPGGSLKLSCATSGFNFNDYFMNWVRQASGKGLEWVGQIRNKNYNYATYYTESLEGRVTISRDDSKNTAYLQMNSLKTEDTAVYYCTSYYYDGFADYFDYWGQGTTVTVSSGGGGSGGGGSGGGGSGGGGSDIQMTQSPSSLSASVGDRVTITCKASQNIYIYLNWYQQKPGKAPKLLIYNTNNLQTGVPSRFSGSGSGTDFTLTISSLQPEDFATYYCLQHSSRRTFGGGTKVEIK
light: DILMTQSPSSMSVSLGDTVSITCHASQGINNNIGWLQRKPGKSFKGLIYHGTNLEDGVPSRFSGSGSGADYSLTISSLESEDFADYYCVQYVQFPRTFGGGTKLEIKRTVAAPSVFIFPPSDEQLKSGTASVVCLLNNFYPREAKVQWKVDNALQSGNSQESVTEQDSKDSTYSLSSTLTLSKADYEKHKVYACEVTHQGLSSPVTKSFNRGEC
notes: Ly361 HC (IgG1 mutated Fc)-TM740 scFv VH-VL + Ly361 LC
B4: Ly479 (bispecific antibody, human IgG1, kappa)
heavy: EVQLVESGGDLVKPGGSLKLSCAASGFTFSSYGMSWVRQTPDKRLEWVAAISTGGSYTYYPDSVKGRFTISRDTATNTLYLQMSTLKSEDTAMYYCTRRGATGSWFAYWGQGTLVTVSAASTKGPSVFPLAPSSKSTSGGTAALGCLVKDYFPEPVTVSWNSGALTSGVHTFPAVLQSSGLYSLSSVVTVPSSSLGTQTYICNVNHKPSNTKVDKKVEPKSCDKTHTCPPCPAPELLGPSVFLFPPKPKDTLMISRTPEVTCVVVDVSHEDPEVKFNWYVDGVEVHNAKTKPREEQYNSTYRVVSVLTVLHQDWLNGKEYKCKVSNKALPAPIEKTISKAKGQPREPQVYTLPPSREEMTKNQVSLTCLVKGFYPSDIAVEWESNGQPENNYKTTPPVLDSDGSFFLYSKLTVDKSRWQQGNVFSCSVMHEALHNHYTQKSLSLSPGGGGGSGGGGSGGGGSGGGGSEVQLVESGGGLVQPGGSLRLSCAASGFTFTNYGLHWVRQAPGKGLEWVSSISPSGGVTYYRDSVKGRFTISRDNSKNTLYLQMNSLRAEDTAVYYCAKPFLGWGGANWIAHWGQGTLVTVSSGGGGSGGGGSGGGGSGGGGSDIQMTQSPSSLSASVGDRVTITCLASEDISNDLAWYQQKPGKAPKLLIYFVDRLLDGVPSRFSGSGSGTDFTLTISSLQPEDFATYYCQQSYKYPPTFGQGTKLEIK
light: B3 light
notes: Ly361 HC-TM559 scFv VH-VL + Ly361 LC
B5: Ly478 (bispecific antibody, human IgG1, kappa)
heavy: EVQLVESGGDLVKPGGSLKLSCAASGFTFSSYGMSWVRQTPDKRLEWVAAISTGGSYTYYPDSVKGRFTISRDTATNTLYLQMSTLKSEDTAMYYCTRRGATGSWFAYWGQGTLVTVSAASTKGPSVFPLAPSSKSTSGGTAALGCLVKDYFPEPVTVSWNSGALTSGVHTFPAVLQSSGLYSLSSVVTVPSSSLGTQTYICNVNHKPSNTKVDKKVEPKSCDKTHTCPPCPAPELLGPSVFLFPPKPKDTLMISRTPEVTCVVVDVSHEDPEVKFNWYVDGVEVHNAKTKPREEQYNSTYRVVSVLTVLHQDWLNGKEYKCKVSNKALPAPIEKTISKAKGQPREPQVYTLPPSREEMTKNQVSLTCLVKGFYPSDIAVEWESNGQPENNYKTTPPVLDSDGSFFLYSKLTVDKSRWQQGNVFSCSVMHEALHNHYTQKSLSLSPGGGGGSGGGGSGGGGSGGGGSDIQMTQSPSSLSASVGDRVTITCLASEDISNDLAWYQQKPGKAPKLLIYFVDRLLDGVPSRFSGSGSGTDFTLTISSLQPEDFATYYCQQSYKYPPTFGQGTKLEIKGGGGSGGGGSGGGGSGGGGSEVQLVESGGGLVQPGGSLRLSCAASGFTFTNYGLHWVRQAPGKGLEWVSSISPSGGVTYYRDSVKGRFTISRDNSKNTLYLQMNSLRAEDTAVYYCAKPFLGWGGANWIAHWGQGTLVTVSS
light: B3 light
notes: Ly361 HC (IgG1 mutated Fc)-TM559 (printed TM599) scFv VL-VH + Ly361 LC
B6: Ly482 (bispecific antibody, human IgG1, kappa)
heavy: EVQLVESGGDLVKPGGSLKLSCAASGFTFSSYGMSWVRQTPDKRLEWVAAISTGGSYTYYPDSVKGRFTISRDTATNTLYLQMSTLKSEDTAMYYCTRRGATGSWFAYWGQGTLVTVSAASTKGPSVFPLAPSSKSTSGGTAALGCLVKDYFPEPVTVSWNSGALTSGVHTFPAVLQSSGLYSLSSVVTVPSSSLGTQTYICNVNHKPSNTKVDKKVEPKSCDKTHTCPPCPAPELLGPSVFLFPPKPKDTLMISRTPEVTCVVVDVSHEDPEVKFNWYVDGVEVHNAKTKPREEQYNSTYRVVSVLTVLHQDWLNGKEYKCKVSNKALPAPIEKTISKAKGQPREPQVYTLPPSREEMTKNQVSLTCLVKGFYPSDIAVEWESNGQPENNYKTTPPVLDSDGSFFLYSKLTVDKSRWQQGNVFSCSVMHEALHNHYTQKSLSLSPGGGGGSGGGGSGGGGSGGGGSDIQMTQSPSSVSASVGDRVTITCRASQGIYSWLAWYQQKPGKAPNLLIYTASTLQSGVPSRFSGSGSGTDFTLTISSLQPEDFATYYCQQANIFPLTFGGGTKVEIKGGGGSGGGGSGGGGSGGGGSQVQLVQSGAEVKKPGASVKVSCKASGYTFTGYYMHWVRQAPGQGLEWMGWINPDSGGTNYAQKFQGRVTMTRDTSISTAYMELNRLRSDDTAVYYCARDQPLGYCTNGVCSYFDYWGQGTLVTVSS
light: B3 light
notes: Ly361 HC (IgG1 mutated Fc)-Ly253 scFv VL-VH + Ly361 LC
B7: Ly483 (bispecific antibody, human IgG1, kappa)
heavy: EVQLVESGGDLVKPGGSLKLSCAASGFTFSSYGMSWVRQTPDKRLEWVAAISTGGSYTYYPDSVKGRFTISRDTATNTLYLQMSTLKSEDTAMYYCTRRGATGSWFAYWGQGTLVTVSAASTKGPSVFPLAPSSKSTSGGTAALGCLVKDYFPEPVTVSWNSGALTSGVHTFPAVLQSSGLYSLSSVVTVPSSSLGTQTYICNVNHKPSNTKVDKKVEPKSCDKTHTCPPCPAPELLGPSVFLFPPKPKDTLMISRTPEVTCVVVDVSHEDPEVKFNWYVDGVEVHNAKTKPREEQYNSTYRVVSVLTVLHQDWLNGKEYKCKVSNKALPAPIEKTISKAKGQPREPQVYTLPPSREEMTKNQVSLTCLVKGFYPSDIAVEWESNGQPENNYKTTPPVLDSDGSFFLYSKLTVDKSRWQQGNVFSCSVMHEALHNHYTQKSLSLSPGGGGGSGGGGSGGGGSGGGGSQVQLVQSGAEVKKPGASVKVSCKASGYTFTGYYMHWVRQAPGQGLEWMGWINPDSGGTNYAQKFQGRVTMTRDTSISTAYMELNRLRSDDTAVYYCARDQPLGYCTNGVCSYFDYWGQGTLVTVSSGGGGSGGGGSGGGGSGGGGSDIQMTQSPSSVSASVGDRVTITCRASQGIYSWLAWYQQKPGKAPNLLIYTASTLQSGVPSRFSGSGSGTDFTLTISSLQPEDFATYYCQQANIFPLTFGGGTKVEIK
light: B3 light
notes: Ly361 HC (IgG1 mutated Fc)-Ly253 scFv VH-VL + Ly361 LC
B8: Ly344 (bispecific antibody, human IgG1, kappa)
heavy: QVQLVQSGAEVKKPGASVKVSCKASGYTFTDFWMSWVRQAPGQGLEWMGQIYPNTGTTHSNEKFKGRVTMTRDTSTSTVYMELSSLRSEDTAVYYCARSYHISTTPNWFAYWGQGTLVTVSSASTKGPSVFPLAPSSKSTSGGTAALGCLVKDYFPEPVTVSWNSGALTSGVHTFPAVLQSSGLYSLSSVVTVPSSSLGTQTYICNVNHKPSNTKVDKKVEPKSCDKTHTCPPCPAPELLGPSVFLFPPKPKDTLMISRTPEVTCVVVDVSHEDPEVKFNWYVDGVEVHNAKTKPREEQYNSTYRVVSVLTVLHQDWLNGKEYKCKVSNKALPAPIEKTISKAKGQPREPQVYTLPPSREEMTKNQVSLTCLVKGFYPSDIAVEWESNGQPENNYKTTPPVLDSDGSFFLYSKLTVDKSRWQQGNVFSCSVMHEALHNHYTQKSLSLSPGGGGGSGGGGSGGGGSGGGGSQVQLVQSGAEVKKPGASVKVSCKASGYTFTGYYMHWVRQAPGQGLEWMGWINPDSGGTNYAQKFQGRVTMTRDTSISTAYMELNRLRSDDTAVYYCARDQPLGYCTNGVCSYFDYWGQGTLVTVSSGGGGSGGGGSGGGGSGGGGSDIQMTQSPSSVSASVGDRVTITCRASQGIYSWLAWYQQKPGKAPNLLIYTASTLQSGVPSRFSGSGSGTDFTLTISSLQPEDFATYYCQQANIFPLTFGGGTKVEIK
light: DIQMTQSPSSLSASVGDRVTITCKASQNVYKKLEWYQQKPGKVPKVLIYHTNILQTGVPSRFSGSGSGTDYTLTISSLQPEDVATYYCYQWNSGPTFGGGTKVEIKRTVAAPSVFIFPPSDEQLKSGTASVVCLLNNFYPREAKVQWKVDNALQSGNSQESVTEQDSKDSTYSLSSTLTLSKADYEKHKVYACEVTHQGLSSPVTKSFNRGEC
notes: Ly076 HC (IgG1 mutated Fc)-Ly253 scFv VH-VL + Ly076 LC

molecular target: T2, human CD40 expressed on CHO cells (human, UniProt P25942 21-277); assay: FACS, CHO cells
T2 construct: whole, on cells; also used for the reporter cells over-expressing human CD40; also called cellular CD40; CHO-CD40 cells
T2 sequence (P25942 21-277): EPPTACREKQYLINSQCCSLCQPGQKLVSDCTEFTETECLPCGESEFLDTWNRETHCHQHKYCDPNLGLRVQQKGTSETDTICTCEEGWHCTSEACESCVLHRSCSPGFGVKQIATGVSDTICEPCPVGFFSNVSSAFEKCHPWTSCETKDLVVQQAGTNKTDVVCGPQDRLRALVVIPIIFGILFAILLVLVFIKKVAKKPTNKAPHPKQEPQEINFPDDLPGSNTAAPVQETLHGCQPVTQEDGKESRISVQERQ

Does B1 bind?
Result: binds

Does B2 bind?
Result: binds

Does B3 bind?
Result: binds

Does B4 bind?
Result: binds

Does B5 bind?
Result: binds

Does B6 bind?
Result: binds

Does B7 bind?
Result: binds

Does B8 bind?
Result: binds

molecular target: T1, human B7H4 expressed on CHO cells; assay: FACS, CHO cells

Does B2 bind?
Result: binds

Does B3 bind?
Result: binds

Does B4 bind?
Result: binds

Does B5 bind?
Result: binds

Does B6 bind?
Result: binds

Does B7 bind?
Result: binds

molecular target: T3, Human CD40 ECD protein (mouse IgG2a Fc tag) (human, UniProt P25942 21-193); assay: bridging ELISA, coated B7H4, soluble CD40 ECD-mFc
T3 construct: extracellular domain; also called Human CD40-msFc; human recombinant CD40; not shown: mouse IgG2a Fc tag
T3 sequence (P25942 21-193): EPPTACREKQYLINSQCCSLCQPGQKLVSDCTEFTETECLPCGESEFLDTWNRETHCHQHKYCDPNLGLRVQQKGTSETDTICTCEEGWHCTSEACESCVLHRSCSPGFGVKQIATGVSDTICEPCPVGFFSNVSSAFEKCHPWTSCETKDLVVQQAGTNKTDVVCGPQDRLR
Procedure: Anti-B7H4/CD40 bi-specific antibodies were analyzed by ELISA for their simultaneous binding to recombinant human B7H4 and human CD40. Briefly, human B7H4 protein was diluted and coated onto an ELISA plate with a volume of […] by incubation at 4° C. overnight. The next day, the plate was blocked by PBST-BSA buffer, then serially diluted samples of anti-B7H4/CD40 bi-specific antibodies were pipetted into appropriate wells at 50 μL/well, and the plate was incubated for 1 h followed by Washing. Human CD40 ECD protein (mouse IgG2a Fc tag) was added into the plate at 50 μL/well. After 1-hour incubation at room temperature, HRP-conjugated anti-mouse IgG (H+L) antibody was added into the plate at 100 μL/well. The plate was incubated for 1 hour at room temperature followed by washing. TMB substrate solution was added at 100 μL/well and the color development was stopped by adding 100 uL/well Stop Solution (2N H2SO4). Absorbance at 450 nm and 620 nm was read by Tecan F200 Pro plate reader. GraphPad 7.0, “[Agonist] vs. response—Variable slope (four parameters)” was used to plot the binding data and calculate binding EC50 values.

Does B2 bind?
Result: binds

Does B3 bind?
Result: binds

Does B4 bind?
Result: binds

Does B5 bind?
Result: binds

Does B6 bind?
Result: binds

Does B7 bind?
Result: binds

molecular target: T4, Ly090 (human CD40 ECD protein with His tag) (human, UniProt P25942 21-193); assay: bridging ELISA, coated CD40 ECD-His, soluble PD-L1 ECD-mFc
T4 construct: extracellular domain; also called human CD40 ECD protein (His tag); recombinant human CD40; not shown: His tag
T4 sequence (P25942 21-193): as above
Procedure: Exemplary anti-PD-L1/CD40 bi-specific antibodies were analyzed by ELISA for their simultaneous binding to recombinant human PD-L1 and human CD40. Briefly, Ly090 (human CD40 ECD protein with His tag) was diluted and coated onto an ELISA plate with a volume of 100 μL/well by incubation at 4° C. overnight. The next day, the plate was blocked by PBST-BSA buffer, then serially diluted samples of anti-PD-L1/CD40 bi-specific antibodies were pipetted into appropriate wells at 50 μL/well, and the plate was incubated for 1 h followed by Washing. Human PD-L1 ECD protein (mouse IgG2a Fc tag) was added into the plate at 50 μL/well. After 1-hour incubation at room temperature, HRP-conjugated anti-Mouse IgG, Fc G2a antibody was added into the plate at 100 μL/well. The plate was incubated for 1 hour at room temperature followed by washing. TMB substrate solution was added at 100 μL/well and the color development was stopped by adding 100 uL/well Stop Solution (2N H₂SO₄). Absorbance at 450 nm and 620 nm was read by Tecan F200 Pro plate reader. GraphPad 7.0, “[Agonist] vs. response—Variable slope (four parameters)” was used to plot the binding data and calculate binding EC50 values.

Does B1 bind?
Result: binds

Does B8 bind?
Result: binds
